Assay results as given in article PMC4004960 (Cancer cell, 2014).
Ends that are not written are not given here.

Molecular target: BRD4-BD2 (recombinant, NMR and fluorescence anisotropy) (UniProt O60885 333-460)
Test: fluorescence polarisation

SPAQGK(Ac)RGK(Ac)KSA (peptide, UniProt Q15672 68-79, looked up) [Twist-K73ac/K76ac peptide (residues 68-79)]
Ki: 800 µM
